Ends that are not written are not given here.
Tested on: RI332 (truncated Ribophorin I)
Test: CHX chase: RI332 degradation in HT1080 AUP1 KO cells
Format: cell-based, human
Conditions: GFP-G2BR^AUP1 co-expressed with TM-UBE2G2, HT1080 AUP1 KO
From the text: Fig 2 The G2BR of AUP1 is required for ERAD of mutant ribophorin and GFP^u. (A) HT1080 or HRD1 KO cells were transfected with plasmid encoding RI332-MYC and with plasmid encoding HRD1 as indicated. Cells were subject to CHX chase and RI332-MYC degradation monitored by western blot. GFP serves as a transfection efficiency control. (B) HT1080 or AUP1 KO cells were transfected with plasmid encoding RI332-MYC and AUP1-FLAG WT or deletion mutants assessed for RI332 degradation. Lower band (*) in MYC blot is nonspecific. (C, D) HEK293 or AUP1 KO cells were assessed for RI332 turnover as in (B). (E) HT1080 or AUP1 KO cells were transfected with GFP^u plasmid, and its degradation assessed by emetine chase, which has previously been used to assess GFP^u turnover. […] (F) HT1080 AUP1 KO cells were transfected with GFP^u and the indicated AUP1-FLAG WT or deletion mutants, and GFP^u degradation assessed as in (E). […]
Fig 8 Recruitment of UBE2G2 to the ER membrane and activation by G2BR^AUP1 is required for ERAD. (A) HT1080 or AUP1 KO cells were transfected with NHK-HA and either empty vector or MYC-UBE2G2 and NHK turnover assessed by CHX chase. (B) AUP1 KO cells were transfected with NHK-HA and GFP fusions of either a scrambled G2BR sequence (SCR) or G2BR^AUP1 and NHK turnover and levels of endogenous UBE2G2 assessed. […] (G) U-2 OS cells were transfected as in (F), and localization assessed by SIM. […]

With “GFP-G2BR^AUP1: GFP fusion of AUP1 aa 378 to 404 (SSWARQESLQERKQALYEYARRRFTER; also: GFP fusion; UniProt Q9Y679 378-404, looked up, fragment)” the “RI332 degradation, soluble G2BR with TM-UBE2G2” value was “restored degradation of RI332”.

Source: article PMC8699718, “A structurally conserved site in AUP1 binds the E2 enzyme UBE2G2 and is essential for ER-associated degradation” (PLoS Biology, 2021)
